This note sets out measurements from patent publication US20240270821A1, “GIP/GLP1/GCG TRI-RECEPTOR AGONISTS AND USES THEREOF” (priority 2023, published 2024).

Starred links: 1 amine or outer side, 2 acyl side, 3 side chain; linkers in the order of their positions; H or OH if unused. Non-standard residues stand in square brackets, D forms with d. Groups on a side chain read outwards from the residue. No end group written: not given here. *: point of attachment. C20 diacid = O=C(O)CCCCCCCCCCCCCCCCCCC(=O)*; Phe(4-CN) = N#Cc1ccc(C[C@H](N)C(=O)O)cc1; αMePhe(2-F) = C[C@](N)(Cc1ccccc1F)C(=O)O; γGlu = O=C(O)[C@H](CCC(=O)[*:2])N[*:1]; αMeL = CC(C)C[C@](C)(N)C(=O)O; AEEA = NCCOCCOCC(=O)O; Aib = CC(C)(N)C(=O)O

What all share (assay): cell-based or functional assay
Assay [1] deals with human glucagon receptor (human) (UniProt P47871).
Sequence of human glucagon receptor (human) (P47871 26-477): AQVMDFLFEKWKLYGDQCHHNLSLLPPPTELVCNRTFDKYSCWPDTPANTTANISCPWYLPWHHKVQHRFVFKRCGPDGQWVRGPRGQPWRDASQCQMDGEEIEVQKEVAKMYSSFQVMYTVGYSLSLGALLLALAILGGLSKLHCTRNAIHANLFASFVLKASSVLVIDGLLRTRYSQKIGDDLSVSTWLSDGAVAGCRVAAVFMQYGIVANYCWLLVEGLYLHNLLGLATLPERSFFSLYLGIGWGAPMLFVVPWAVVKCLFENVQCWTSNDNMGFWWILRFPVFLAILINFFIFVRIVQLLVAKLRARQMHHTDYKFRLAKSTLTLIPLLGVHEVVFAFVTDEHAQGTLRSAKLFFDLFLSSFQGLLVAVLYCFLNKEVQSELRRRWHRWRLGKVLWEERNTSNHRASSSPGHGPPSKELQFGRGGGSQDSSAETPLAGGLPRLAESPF
The target in assay [2] is T1, human GIP receptor (human) (UniProt P48546).
T1 sequence (looked up): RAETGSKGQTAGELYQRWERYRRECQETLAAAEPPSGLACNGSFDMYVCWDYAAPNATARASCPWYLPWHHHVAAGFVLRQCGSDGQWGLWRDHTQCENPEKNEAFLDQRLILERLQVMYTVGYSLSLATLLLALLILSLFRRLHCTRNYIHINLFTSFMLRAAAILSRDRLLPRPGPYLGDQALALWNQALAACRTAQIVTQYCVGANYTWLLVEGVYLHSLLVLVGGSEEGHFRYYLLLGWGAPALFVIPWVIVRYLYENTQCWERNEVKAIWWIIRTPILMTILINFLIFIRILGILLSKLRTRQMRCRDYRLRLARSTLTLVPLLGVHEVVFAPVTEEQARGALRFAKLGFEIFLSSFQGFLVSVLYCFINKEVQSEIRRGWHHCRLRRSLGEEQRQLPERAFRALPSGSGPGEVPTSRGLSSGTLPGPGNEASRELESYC

Assay [3] concerns the target hGLP-1R (Homo sapiens, UniProt P43220).

Sequence of hGLP-1R (P43220 24-463): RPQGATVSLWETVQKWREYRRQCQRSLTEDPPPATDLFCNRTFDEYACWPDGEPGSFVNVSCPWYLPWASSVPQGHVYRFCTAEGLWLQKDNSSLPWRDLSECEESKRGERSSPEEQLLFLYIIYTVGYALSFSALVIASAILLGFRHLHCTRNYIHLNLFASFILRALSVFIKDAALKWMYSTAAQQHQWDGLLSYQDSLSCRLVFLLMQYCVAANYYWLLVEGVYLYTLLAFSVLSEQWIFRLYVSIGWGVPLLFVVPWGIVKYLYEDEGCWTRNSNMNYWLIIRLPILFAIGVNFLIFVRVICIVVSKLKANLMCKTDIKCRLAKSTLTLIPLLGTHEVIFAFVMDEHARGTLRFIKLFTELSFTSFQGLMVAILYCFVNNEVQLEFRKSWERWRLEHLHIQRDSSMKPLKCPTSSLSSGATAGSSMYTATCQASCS

B1: Example 343 (peptide)
chain: YXQGTFTSDYSKXLDKKAQXAFVQWLLEGGPSSGEPPPSEG
modifications: not fully specified; synthetic construct; SITE 2: note = 2-Aminoisobutyric Acid; SITE 13: note = alpha-methyl-leucine; SITE 17: note = Lysine is chemically modified through conjugation of the epsilon-amino group of the Lysine side chain with (2-[2-(2-Amino-ethoxy)-ethoxy]-acetyl)-(gamma-Glu)-CO-(CH2) 18-CO2H; SITE 20: n
On to B1, for which the Relative cAMP EC50 in assay [1] worked out at 6.83 nM; in assay [2], 0.184 nM; in assay [3] it was 1.31 nM. The cAMP Rel EC50 (1% HSA) in assay [1] is 475 nM; in assay [2], 16.7 nM; in assay [3] it was 178 nM.

B2: Example 347 (peptide)
chain: YXQGTXTSDXSILLDKQAQKAFIEYLLEGGPSSGEPPPSEG
modifications: not fully specified; synthetic construct; SITE 2: note = 2-Aminoisobutyric Acid; SITE 6: note = alpha-methyl-2-fluoro-L-phenylalanine; SITE 10: note = 3-(4-Pyridyl)-L-alanine; SITE 20: note = Lysine is chemically modified through conjugation of the epsilon-amino group of the Lysine side chain with (2-[2-(2-Amino-ethoxy))
Turning to B2, the Relative cAMP EC50 in assay [1] was determined as 8.88 nM; in assay [2], 0.0634 nM; in assay [3], 0.798 nM. For the same molecule, the cAMP Rel EC50, nM (1% HSA) in assay [1] was found to be 3650 nM; in assay [2], 17.3 nM; in assay [3], 254 nM.

B3: Example 342 (peptide)
chain: Y[Aib]QGTFTSDYSK[αMeL]LDKKAQQAFVQWLIE[dA]GPSSGEPPPSEG-NH2
modifications: not fully specified (residue 17)
Take B3: the Relative cAMP EC50 was found to be 10.2 nM in assay [1], 0.347 nM in assay [2] and 0.419 nM in assay [3]. Moreover, the cAMP Rel EC50 (1% HSA) in assay [1] is 2130 nM; in assay [2] it was 71.3 nM; in assay [3], 62 nM.

B4: Example 344 (peptide)
chain: Y[Aib]QGTFTSDYSK[αMeL]LDKKAQQAFIEYLLAGGPSSGEPPPSGE-NH2
modifications: not fully specified (residue 17)
Take B4: the Relative cAMP EC50 in assay [1] came to 9.05 nM; in assay [2], 0.406 nM; in assay [3], 2.56 nM. Also, the cAMP Rel EC50 (1% HSA) in assay [1] is 1440 nM; in assay [2], 70.7 nM; in assay [3], 523 nM.

B5: Example 345 (peptide)
chain: Y[Aib]QGT[αMePhe(2-F)]TSDYSILLDKQAQKAFIEYLLEGGPSSGEPPPSEG-NH2
modifications: not fully specified (residue 20)
On to B5, for which the Relative cAMP EC50 in assay [1] was found to be 11.3 nM; in assay [2], 0.0377 nM; in assay [3], 0.658 nM. Moreover, the cAMP Rel EC50 (1% HSA) in assay [1] was 3300 nM; in assay [2], 15.3 nM; in assay [3], 256 nM.

B6: Example 339 (peptide)
chain: Y[Aib]QGT[αMePhe(2-F)]TSDYSKLLDKIAQKAFIEYLIEGGPSSGAPPPSEG-NH2
modifications: not fully specified (residue 20)
As to B6, the figures for the Relative cAMP EC50 in assay [1], in assay [2] and in assay [3] were 6.81 nM, 0.101 nM and 1.06 nM, respectively. Moreover, the cAMP Rel EC50 (1% HSA) in assay [1] was 1510 nM; in assay [2], 28.8 nM; in assay [3], 192 nM.

B7: Example 340 (peptide)
chain: Y[Aib]QGT[αMePhe(2-F)]TSDYSILLDKQAAKEFIEYLIEGGPSSGAPPPSEG-NH2
modifications: not fully specified (residue 20)
For B7, the values for the Relative cAMP EC50 in assay [1], in assay [2] and in assay [3] were 2.02 nM, 0.189 nM and 0.648 nM, respectively. The cAMP Rel EC50 (1% HSA) in assay [1] came out at 647 nM; in assay [2] it was 60.4 nM; in assay [3], 246 nM.

B8: Example 348 (peptide)
chain: Y[Aib]QGT[αMePhe(2-F)]TSDYSILLDKQAAKEFIEYLIEGGPSSGEPPPSEG-NH2
modifications: not fully specified (residue 20)
For the molecule B8, the Relative cAMP EC50 in assay [1] was 3.9 nM; in assay [2] it was 0.127 nM; in assay [3], 0.346 nM. For the same molecule, the cAMP Rel EC50, nM (1% HSA) in assay [1] came to 1250 nM; in assay [2], 36.4 nM; in assay [3] it was 136 nM.

B9: Example 346 (peptide)
chain: Y[Aib]QGT[αMePhe(2-F)]TSDFSILLDKQAQKAFIEYLLEGGPSSGEPPPSEG-NH2
modifications: not fully specified (residue 20)
In the case of B9, the Relative cAMP EC50 turned out to be 15.6 nM in assay [1], 0.0738 nM in assay [2] and 1.17 nM in assay [3]. For the same molecule, the cAMP Rel EC50 (1% HSA) in assay [1] came out at 4310 nM; in assay [2] it was 28.3 nM; in assay [3], 514 nM.

B10: Example 333 (peptide)
chain: Y[Aib]QGTFTSDYSI[αMeL]LDKQAAK([AEEA-AEEA-γGlu-C20 diacid])QFVEWLIA[Aib]GPSSGEPPPGEG-NH2
As for B10, the results for the Relative cAMP EC50 in assay [1], in assay [2] and in assay [3] were 7.09 nM, 0.265 nM and 0.705 nM, respectively. The cAMP Rel EC50 (1% HSA) in assay [1] amounted to 1410 nM; in assay [2], 36.3 nM; in assay [3], 182 nM.

B11: Example 336 (peptide)
chain: Y[Aib]QGTFTSDYSI[αMeL]LDKQAAKQFVEWLIA[Aib]GPSSGEPPPGTG-NH2
modifications: not fully specified (residue 20)
B11: the values for the Relative cAMP EC50 in assay [1], in assay [2] and in assay [3] were 7.05 nM, 0.306 nM and 0.921 nM, respectively. For the same molecule, the cAMP Rel EC50 (1% HSA) in assay [1] came to 1740 nM; in assay [2], 64.4 nM; in assay [3], 227 nM.

B12: Example 341 (peptide)
chain: Y[Aib]QGT[αMePhe(2-F)]TSD[Phe(4-CN)]SILLDKQAQKAFIQYLLEGGPSSGEPPPSEG-NH2
modifications: not fully specified (residue 20)
Consider B12, for which the Relative cAMP EC50 in assay [1] was 10.7 nM; in assay [2] it was 0.213 nM; in assay [3], 1.62 nM. Also, the cAMP Rel EC50 (1% HSA) in assay [1] worked out at 2930 nM; in assay [2], 49.6 nM; in assay [3], 395 nM.

B13: Example 349 (peptide)
chain: Y[Aib]QGTFTSDYSI[αMeL]LDKQAAKQFIEYLIA[Aib]GPSSGEPPPSEG-NH2
modifications: not fully specified (residue 20)
With B13, the Relative cAMP EC50 was 5.12 nM in assay [1], 0.152 nM in assay [2] and 0.555 nM in assay [3]. In addition, the figures for the cAMP Rel EC50, nM (1% HSA) in assay [1], in assay [2] and in assay [3] were 2280 nM, 52.6 nM and 218 nM, respectively.

B14: Example 335 (peptide)
chain: Y[Aib]QGTFTSDYSI[αMeL]LDKQAAKQFVEWLIA[Aib]GPSSGEPPPGSG-NH2
modifications: not fully specified (residue 20)
Turning to B14, the results for the Relative cAMP EC50 in assay [1], in assay [2] and in assay [3] were 6.11 nM, 0.292 nM and 0.461 nM, respectively. The cAMP Rel EC50 (1% HSA) is 1410 nM in assay [1], 46.7 nM in assay [2] and 150 nM in assay [3].

B15: Example 331 (peptide)
chain: Y[Aib]QGT[αMePhe(2-F)]TSDYSILLDKQAAKAFIEYLIEGGPSSGEPPPSEG-NH2
modifications: not fully specified (residue 20)
For B15, the values for the Relative cAMP EC50 in assay [1], in assay [2] and in assay [3] were 1.66 nM, 0.148 nM and 0.663 nM, respectively. The cAMP Rel EC50 (1% HSA) in assay [1] was 339 nM; in assay [2], 47.5 nM; in assay [3], 207 nM.

B16: Example 330 (peptide)
chain: Y[Aib]QGT[αMePhe(2-F)]TSDYSKLLDKIAQKAFIEYLIEGGPSSGEPPPSEG-NH2
modifications: not fully specified (residue 20)
With B16, the Relative cAMP EC50 is 3.91 nM in assay [1], 0.0783 nM in assay [2] and 0.63 nM in assay [3]. Besides, the cAMP Rel EC50 (1% HSA) in assay [1] was found to be 398 nM; in assay [2] it was 7.33 nM; in assay [3] it was 91.8 nM.

B17: Example 332 (peptide)
chain: Y[Aib]QGTFTSDYSI[αMeL]LDKQAAK([AEEA-AEEA-γGlu-C20 diacid])QFVEWLIAGGPSSGEPPPAEG-NH2
Turning to B17, the Relative cAMP EC50 in assay [1] came to 11.8 nM; in assay [2], 0.413 nM; in assay [3], 1.24 nM. Further, the cAMP Rel EC50 (1% HSA) in assay [1] was 3340 nM; in assay [2], 78.2 nM; in assay [3], 298 nM.

B18: Example 338 (peptide)
chain: Y[Aib]QGT[αMePhe(2-F)]TSDYSKLLDKIAQKAFIQYLIEGGPSSGEPPPSEG-NH2
modifications: not fully specified (residue 20)
Turning to B18, the Relative cAMP EC50 in assay [1] was determined as 4.02 nM; in assay [2] it was 0.0733 nM; in assay [3] it was 1.22 nM. The cAMP Rel EC50 (1% HSA) in assay [1] was 659 nM; in assay [2], 10.9 nM; in assay [3], 172 nM.

B19: Example 337 (peptide)
chain: Y[Aib]QGTFTSDYSK[αMeL]LDKKAQQAFIEYLIAGGPSSGEPPPSGD-NH2
modifications: not fully specified (residue 17)
In the case of B19, the Relative cAMP EC50 in assay [1] is 5.95 nM; in assay [2], 0.332 nM; in assay [3], 0.686 nM. For the same molecule, the cAMP Rel EC50 (1% HSA) in assay [1] was 2950 nM; in assay [2], 99.1 nM; in assay [3] it was 272 nM.
